Key:
A-beta42 Monomer (human) [1] = assay: SPR; purified antibody immobilized, A-beta preparation flowed over
[2] = target: A-beta42 Oligomer (synthetic, prepared in F12 medium) (human); assay: as above
[3] = target: commercially-prepared stable A-beta42 Oligomers (SynAging SAS) (human); assay: SPR; antibody covalently immobilized, stable A-beta42 oligomers (1 microM) injected
A-beta42 Monomer (human) [4] = assay: SPR (MASS-1) direct binding; hybridoma culture supernatant over immobilized A-beta42 monomer
[5] = target: A-beta42 Oligomer (synthetic, prepared in F12 medium) (human); assay: SPR (MASS-1) direct binding; hybridoma culture supernatant over immobilized A-beta42 oligomer
[6] = target: T1, cyclo(CGHHQKG) (SEQ ID NO: 12) conjugated to BSA; assay: SPR (MASS-1) direct binding; hybridoma culture supernatant over immobilized BSA-conjugated peptide
T1 sequence (peptide, cyclic peptide, cyclo(CGHHQKG); conjugated to BSA): CGHHQKG

[7] = target: T2, linear CGHHQKG (SEQ ID NO: 12) conjugated to BSA; assay: as above
T2 sequence (peptide, linear (not cyclized); conjugated to BSA): CGHHQKG

Chain of A-beta42 Oligomer (synthetic, prepared in F12 medium) (human) (peptide, as listed by the source): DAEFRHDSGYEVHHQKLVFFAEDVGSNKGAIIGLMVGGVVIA
Chain of A-beta42 Monomer (human) (peptide, as listed by the source): as above
Chain of commercially-prepared stable A-beta42 Oligomers (SynAging SAS) (human) (peptide, as listed by the source): as above

binding response (RU) (A-beta42 Monomer (human) [1]): -23.8 RU | binding response (RU) [2]: 15.5 RU | binding response units (BRUs), average [3]: 14.5 BRU | binding response (RU) (A-beta42 Monomer (human) [4]): -1.8 RU | binding response (RU) [5]: 56.8 RU | binding response (RU) [6]: 469 RU | binding response (RU) [7]: 60.6 RU
B1: 301-3 (antibody, part only; not given: Light chain, two candidates, IgG3, V domains shown, part only)
VH: EVQLVESGGGLVKPGGSLKLSCAASGFTFSDYYMYWVRQTPEKRLEWVATISDGGSYTSYPDSVKGRFTISRDSAKNNLYLQMSSLKSEDTAMYYCARDYYGSNSYTSGFAYWGQGTLVTVSA

— patent publication US20200181247A1
